Target: γ-tubulin ring complex (γ-TuRC) purified using GCP3-GFP-SII (human (endogenous in HEK293T)) (UniProt Q96CW5)
Assay: single-molecule colocalisation by TIRF microscopy

## mCherry-CDK5RAP2 (full-length, human) (from UniProt Q96SN8 1-1893) (natural protein)
  % of CDK5RAP2-positive dots colocalizing with γ-TuRCs, with tubulin: 13%
  % of CDK5RAP2-positive dots colocalizing with γ-TuRCs, without tubulin: 41%

Source: article doi:10.1101/2022.08.03.502613
